Patent US20050114927

Target: Yeast wild-type L3 incorporated into ribosomes of wild-type cells

B1: Pokeweed antiviral protein (PAP) (protein)
chain: VNTIIYNVGSTTISKYATFLNDLRNEAKDPSLKCYGIPMLPNTNTNPKYVLVELQGSNKKTITLMLRRNNLYVMGYSDPFETNKCRYHIFNDISGTERQDVETTLCPNANSRVSKNINFDSRYPTLESKAGVKSRSQVQLGIQILDSNIGKISGVMSFTEKTEAEFLLVAIQMVSEAARFKYIENQVKTNFNRAFNPNPKVLNLQETWGKISTAIHDAKNGVLPKPLELVDASGAKWIVLRVDEIKPDVALLNYVGGSCQTTY
  association with isolated ribosomes (immunoblot with antibody against PAP): Both PAP and PAPx were associated with ribosomes in wild-type cells
